In assay [1] the target is human C3b (human) (UniProt P01024). As to the kind of experiment: BLI.
Assay [2] has the same target.

By Kd is commonly meant the concentration at which binding is half-saturated.

Chain of human C3b (human) (P01024 23-667, chain 1 of 2): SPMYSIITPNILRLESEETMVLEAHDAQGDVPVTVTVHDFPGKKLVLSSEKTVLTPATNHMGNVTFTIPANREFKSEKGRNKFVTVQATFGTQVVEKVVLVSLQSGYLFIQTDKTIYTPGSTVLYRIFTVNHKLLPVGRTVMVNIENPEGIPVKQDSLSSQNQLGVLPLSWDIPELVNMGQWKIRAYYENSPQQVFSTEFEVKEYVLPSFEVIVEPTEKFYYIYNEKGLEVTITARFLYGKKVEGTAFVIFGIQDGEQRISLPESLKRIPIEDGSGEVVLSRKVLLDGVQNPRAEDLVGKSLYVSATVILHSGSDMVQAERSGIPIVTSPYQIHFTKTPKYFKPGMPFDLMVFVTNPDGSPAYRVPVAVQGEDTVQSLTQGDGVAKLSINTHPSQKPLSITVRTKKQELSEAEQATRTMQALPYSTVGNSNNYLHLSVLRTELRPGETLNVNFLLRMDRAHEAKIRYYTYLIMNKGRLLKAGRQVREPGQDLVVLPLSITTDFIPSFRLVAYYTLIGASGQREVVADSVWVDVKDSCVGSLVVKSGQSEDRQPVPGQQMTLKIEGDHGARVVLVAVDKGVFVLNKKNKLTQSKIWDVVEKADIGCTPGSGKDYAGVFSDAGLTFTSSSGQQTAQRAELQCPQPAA
Chain of human C3b (human) (P01024 749-1663, chain 2 of 2): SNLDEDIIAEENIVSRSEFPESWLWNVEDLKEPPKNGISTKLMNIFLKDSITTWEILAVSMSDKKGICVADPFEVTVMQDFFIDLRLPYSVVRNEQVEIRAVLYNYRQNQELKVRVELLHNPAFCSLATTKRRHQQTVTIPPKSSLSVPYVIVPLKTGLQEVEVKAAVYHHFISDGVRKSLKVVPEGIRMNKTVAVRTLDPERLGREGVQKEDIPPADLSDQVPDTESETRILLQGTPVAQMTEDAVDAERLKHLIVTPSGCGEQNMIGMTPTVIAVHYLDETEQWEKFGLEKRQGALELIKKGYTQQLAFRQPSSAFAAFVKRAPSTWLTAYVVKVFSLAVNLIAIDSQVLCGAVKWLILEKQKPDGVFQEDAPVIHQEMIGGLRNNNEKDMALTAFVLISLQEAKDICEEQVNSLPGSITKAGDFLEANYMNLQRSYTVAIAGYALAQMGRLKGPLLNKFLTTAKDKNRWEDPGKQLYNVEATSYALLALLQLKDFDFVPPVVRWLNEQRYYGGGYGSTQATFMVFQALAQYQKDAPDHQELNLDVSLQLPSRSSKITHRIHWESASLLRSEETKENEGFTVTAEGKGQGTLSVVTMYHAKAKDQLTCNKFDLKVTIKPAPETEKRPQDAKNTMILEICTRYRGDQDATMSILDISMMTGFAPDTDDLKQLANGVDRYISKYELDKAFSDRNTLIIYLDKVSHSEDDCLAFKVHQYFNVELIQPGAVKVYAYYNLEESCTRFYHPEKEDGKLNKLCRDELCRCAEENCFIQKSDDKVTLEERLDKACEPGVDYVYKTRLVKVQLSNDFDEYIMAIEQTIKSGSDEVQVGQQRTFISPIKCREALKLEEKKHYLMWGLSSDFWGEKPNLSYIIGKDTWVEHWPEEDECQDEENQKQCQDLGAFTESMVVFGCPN

“CG001, (CRIg-FH-IgG4 Fc) x2 (from UniProt Q9Y279 20-283; P08603 18-264) (Fc fusion)” registered a Kd in the assay with human C3b (human) [1] of 4.24 nM. In the assay with human C3b (human) [2], this substance gave an AP-mediated hemolysis of rabbit erythrocytes (12% NHS), IC50 of 88.9 nM; an AP-mediated hemolysis of rabbit erythrocytes (12% NHS), IC95 of 207 nM; a CP-mediated hemolysis of sheep erythrocytes (0.2% hemolysin, 1% NHS), IC50 of 446 nM; a CP-mediated hemolysis of sheep erythrocytes (0.2% hemolysin, 1% NHS), IC95 of 34200 nM.

(Values after paper PMC11334799.)
